From patent US20190169286A1 (Chugai, published 2019)

Legend:
human FcRn = target: T1, human FcRn (human, UniProt P55899 24-290; P61769 21-119, limits assumed); experiment: SPR Biacore T100, Ab captured on Protein L, FcRn analyte, pH 6.0, 25C
T1 construct: also called hFcRn
Experimental: Antibodies containing VH3-IgG1m or an above-mentioned variant as the heavy chain and L(WT) (SEQ ID NO:1) as the light chain were produced by the method of Reference Example 2, and the binding activity toward human FcRn was evaluated as follows.
Kinetic analyses of human FcRn and each of the antibodies were carried out using BIACORE T100 (GE Healthcare). […] For the running buffer, 50 mM sodium phosphate, 150 mM NaCl, and 0.05% (w/v) Tween 20 at pH 6.0 was used, and the respective buffer was also used to dilute FcRn. […] All measurements were carried out at 25° C.

human IL-8 [1] = target: T2, human IL-8 (human, UniProt P10145 23-99, limits assumed); experiment: SPR Biacore T200, Protein A/G capture, pH 7.4, 40C;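 note: antibodies captured via Protein A/G, which was amine-coupled to a CM4 sensor chip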
T2 construct: also called hIL-8; hIL8
T2 sequence (P10145 23-99 limits assumed): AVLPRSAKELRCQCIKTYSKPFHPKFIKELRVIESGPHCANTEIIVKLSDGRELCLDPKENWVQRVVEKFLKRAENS
Experimental: (§1) An appropriate amount of Protein A/G (PIERCE) was immobilized onto the Sensor chip CM4 (GE Healthcare) by the amine coupling method and the antibodies of interest were captured. […] To regenerate the sensor chip, 25 mM NaOH and 10 mM glycine-HCl (pH 1.5) were used. […] The BIACORE T200 Evaluation Software (GE Healthcare) was used to calculate each parameter.

human IL-8 [2] = target: T2, human IL-8; experiment: SPR Biacore T200, Protein A/G capture, pH 5.8, 37C;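 note: antibodies captured by Protein A/G amine-coupled onto a CM4 sensor chip, with kinetic parameters derived using Biacore T200 Evaluation Software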
Experimental: as §1

Binder	Kd (human FcRn)	Kd (human IL-8 [1])	Kd (human IL-8 [2])	koff (human IL-8 [2])
VH3-F1168m / L(WT) (antibody, Fc: N434A/Q438R/S440E) heavy: QVQLQESGPGLVKPSETLSLTCAVSGHSISHDHAWSWVRQPPGEGLEWIGFISYSGITNYNPSLQGRVTISRDNSKNTLYLQMNSLRAEDTAVYYCARSLARTTAMDYWGEGTLVTVSSASTKGPSVFPLAPSSKSTSGGTAALGCLVKDYFPEPVTVSWNSGALTSGVHTFPAVLQSSGLYSLSSVVTVPSSSLGTQTYICNVNHKPSNTKVDKKVEPKSCDKTHTCPPCPAPELLGGPSVFLFPPKPKDTLMISRTPEVTCVVVDVSHEDPEVKFNWYVDGVEVHNAKTKPREEQYNSTYRVVSVLTVLHQDWLNGKEYKCKVSNKALPAPIEKTISKAKGQPREPQVYTLPPSREEMTKNQVSLTCLVKGFYPSDIAVEWESNGQPENNYKTTPPVLDSDGSFFLYSKLTVDKSRWQQGNVFSCSVMHEALHAHYTRKELSLSP light: not shown	410 nM			
VH3-F1847m / L(WT) (antibody, Fc: N434A/Y436T/Q438R/S440E) heavy: QVQLQESGPGLVKPSETLSLTCAVSGHSISHDHAWSWVRQPPGEGLEWIGFISYSGITNYNPSLQGRVTISRDNSKNTLYLQMNSLRAEDTAVYYCARSLARTTAMDYWGEGTLVTVSSASTKGPSVFPLAPSSKSTSGGTAALGCLVKDYFPEPVTVSWNSGALTSGVHTFPAVLQSSGLYSLSSVVTVPSSSLGTQTYICNVNHKPSNTKVDKKVEPKSCDKTHTCPPCPAPELLGGPSVFLFPPKPKDTLMISRTPEVTCVVVDVSHEDPEVKFNWYVDGVEVHNAKTKPREEQYNSTYRVVSVLTVLHQDWLNGKEYKCKVSNKALPAPIEKTISKAKGQPREPQVYTLPPSREEMTKNQVSLTCLVKGFYPSDIAVEWESNGQPENNYKTTPPVLDSDGSFFLYSKLTVDKSRWQQGNVFSCSVMHEALHAHTTRKELSLSP light: not shown	367 nM			
VH3-F1889m / L(WT) (antibody, Fc: M428L/N434A/Y436V/Q438R/S440E) heavy: QVQLQESGPGLVKPSETLSLTCAVSGHSISHDHAWSWVRQPPGEGLEWIGFISYSGITNYNPSLQGRVTISRDNSKNTLYLQMNSLRAEDTAVYYCARSLARTTAMDYWGEGTLVTVSSASTKGPSVFPLAPSSKSTSGGTAALGCLVKDYFPEPVTVSWNSGALTSGVHTFPAVLQSSGLYSLSSVVTVPSSSLGTQTYICNVNHKPSNTKVDKKVEPKSCDKTHTCPPCPAPELLGGPSVFLFPPKPKDTLMISRTPEVTCVVVDVSHEDPEVKFNWYVDGVEVHNAKTKPREEQYNSTYRVVSVLTVLHQDWLNGKEYKCKVSNKALPAPIEKTISKAKGQPREPQVYTLPPSREEMTKNQVSLTCLVKGFYPSDIAVEWESNGQPENNYKTTPPVLDSDGSFFLYSKLTVDKSRWQQGNVFSCSVLHEALHAHVTRKELSLSP light: not shown	103 nM			
VH3-F1886m / L(WT) (antibody, Fc: M428L/N434A/Y436T/Q438R/S440E) heavy: QVQLQESGPGLVKPSETLSLTCAVSGHSISHDHAWSWVRQPPGEGLEWIGFISYSGITNYNPSLQGRVTISRDNSKNTLYLQMNSLRAEDTAVYYCARSLARTTAMDYWGEGTLVTVSSASTKGPSVFPLAPSSKSTSGGTAALGCLVKDYFPEPVTVSWNSGALTSGVHTFPAVLQSSGLYSLSSVVTVPSSSLGTQTYICNVNHKPSNTKVDKKVEPKSCDKTHTCPPCPAPELLGGPSVFLFPPKPKDTLMISRTPEVTCVVVDVSHEDPEVKFNWYVDGVEVHNAKTKPREEQYNSTYRVVSVLTVLHQDWLNGKEYKCKVSNKALPAPIEKTISKAKGQPREPQVYTLPPSREEMTKNQVSLTCLVKGFYPSDIAVEWESNGQPENNYKTTPPVLDSDGSFFLYSKLTVDKSRWQQGNVFSCSVLHEALHAHTTRKELSLSP light: not shown	108 nM			
H1037/L0442 (antibody, human IgG1, kappa, name in Kabat numbering, V domains shown, L442 = L395 + S31E) VH: QVQLVESGGGLVQPGGSLRLSCAASGFTFDKYYLSWVRQAPGKGLEWVGLIRNKDNYHHPEYSASVKGRFTISRDDSKNSLYLTMSDLKTEDTAVYYCARENHRYDVELAYWGQGTLVTVSS VL: DIQMTQSPSSLSASVGDRVTITCRASEIIYEYLAWYQQKPGKAPKLLIYKAKTHADGVPSRFSGSGSGTDFTFTISSLQPEDIATYYCKHHFGFPRTFGQGTKVEIKR		0.13 nM	61 nM	0.015 s⁻¹
H1040/L0395 (antibody, human IgG1, kappa, name in Kabat numbering, V domains shown) VH: QVQLVESGGGLVQPGGSLRLSCAASGFTFSEYYLSWVRQAPGKGLEWVGLIRNKDNHHHPEYSASVKGRFTISRDDSKNSLYLTMSDLKTEDTAVYYCARENHRYDVELAYWGQGTLVTVSS VL: DIQMTQSPSSLSASVGDRVTITCRASEIIYSYLAWYQQKPGKAPKLLIYKAKTHADGVPSRFSGSGSGTDFTFTISSLQPEDIATYYCKHHFGFPRTFGQGTKVEIKR		0.26 nM	240 nM	0.046 s⁻¹
H1049/L0395 (antibody, human IgG1, kappa, name in Kabat numbering, V domains shown) VH: QVQLVESGGGLVQPGGSLRLSCAASGFTFDKYYLSWVRQAPGKGLEWVGLIRNKDNYHTPEYSASVKGRFTISRDDSKNSLYLTMSDLKTEDTAVYYCARENHRYDVELAYWGQGTLVTVSS VL: DIQMTQSPSSLSASVGDRVTITCRASEIIYSYLAWYQQKPGKAPKLLIYKAKTHADGVPSRFSGSGSGTDFTFTISSLQPEDIATYYCKHHFGFPRTFGQGTKVEIKR		0.025 nM	38 nM	0.004 s⁻¹
H1050/L0442 (antibody, human IgG1, kappa, name in Kabat numbering, V domains shown, L442 = L395 + S31E) VH: QVQLVESGGGLVQPGGSLRLSCAASGFTFSEYYLSWVRQAPGKGLEWVGLIRNKDNYHTPEYSASVKGRFTISRDDSKNSLYLTMSDLKTEDTAVYYCARENHRYDVELAYWGQGTLVTVSS VL: DIQMTQSPSSLSASVGDRVTITCRASEIIYEYLAWYQQKPGKAPKLLIYKAKTHADGVPSRFSGSGSGTDFTFTISSLQPEDIATYYCKHHFGFPRTFGQGTKVEIKR		0.099 nM	54 nM	0.0076 s⁻¹
H1047/L0395 (antibody, human IgG1, kappa, name in Kabat numbering, V domains shown) VH: QVQLVESGGGLVQPGGSLRLSCAASGFTFDKYYLSWVRQAPGKGLEWVGLIRNKDNGYTPEYSASVKGRFTISRDDSKNSLYLTMSDLKTEDTAVYYCARENHRYDVELAYWGQGTLVTVSS VL: DIQMTQSPSSLSASVGDRVTITCRASEIIYSYLAWYQQKPGKAPKLLIYKAKTHADGVPSRFSGSGSGTDFTFTISSLQPEDIATYYCKHHFGFPRTFGQGTKVEIKR		0.095 nM	47 nM	0.006 s⁻¹
H1041/L0395 (antibody, human IgG1, kappa, name in Kabat numbering, V domains shown) VH: QVQLVESGGGLVQPGGSLRLSCAASGFTFSEYYLSWVRQAPGKGLEWVGLIRNKDNGYHPEYSASVKGRFTISRDDSKNSLYLTMSDLKTEDTAVYYCARENHRYDVELAYWGQGTLVTVSS VL: DIQMTQSPSSLSASVGDRVTITCRASEIIYSYLAWYQQKPGKAPKLLIYKAKTHADGVPSRFSGSGSGTDFTFTISSLQPEDIATYYCKHHFGFPRTFGQGTKVEIKR		0.08 nM	71 nM	0.013 s⁻¹
H1046/L0395 (antibody, human IgG1, kappa, name in Kabat numbering, V domains shown) VH: QVQLVESGGGLVQPGGSLRLSCAASGFTFSEYYLSWVRQAPGKGLEWVGLIRNKDNYHHPEYSASVKGRFTISRDDSKNSLYLTMSDLKTEDTAVYYCARENHRYDVELAYWGQGTLVTVSS VL: DIQMTQSPSSLSASVGDRVTITCRASEIIYSYLAWYQQKPGKAPKLLIYKAKTHADGVPSRFSGSGSGTDFTFTISSLQPEDIATYYCKHHFGFPRTFGQGTKVEIKR		0.18 nM	160 nM	0.012 s⁻¹

Continued, values first:

Kd (human FcRn)	Kd (human IL-8 [1])	Kd (human IL-8 [2])	koff (human IL-8 [2])	Binder
295 nM				VH3-F1848m / L(WT) (antibody, Fc: N434A/Y436V/Q438R/S440E) heavy: QVQLQESGPGLVKPSETLSLTCAVSGHSISHDHAWSWVRQPPGEGLEWIGFISYSGITNYNPSLQGRVTISRDNSKNTLYLQMNSLRAEDTAVYYCARSLARTTAMDYWGEGTLVTVSSASTKGPSVFPLAPSSKSTSGGTAALGCLVKDYFPEPVTVSWNSGALTSGVHTFPAVLQSSGLYSLSSVVTVPSSSLGTQTYICNVNHKPSNTKVDKKVEPKSCDKTHTCPPCPAPELLGGPSVFLFPPKPKDTLMISRTPEVTCVVVDVSHEDPEVKFNWYVDGVEVHNAKTKPREEQYNSTYRVVSVLTVLHQDWLNGKEYKCKVSNKALPAPIEKTISKAKGQPREPQVYTLPPSREEMTKNQVSLTCLVKGFYPSDIAVEWESNGQPENNYKTTPPVLDSDGSFFLYSKLTVDKSRWQQGNVFSCSVMHEALHAHVTRKELSLSP light: not shown
	0.094 nM	70 nM	0.015 s⁻¹	H1037/L0395 (antibody, human IgG1, kappa, name in Kabat numbering, V domains shown) VH: QVQLVESGGGLVQPGGSLRLSCAASGFTFDKYYLSWVRQAPGKGLEWVGLIRNKDNYHHPEYSASVKGRFTISRDDSKNSLYLTMSDLKTEDTAVYYCARENHRYDVELAYWGQGTLVTVSS VL: DIQMTQSPSSLSASVGDRVTITCRASEIIYSYLAWYQQKPGKAPKLLIYKAKTHADGVPSRFSGSGSGTDFTFTISSLQPEDIATYYCKHHFGFPRTFGQGTKVEIKR
	0.12 nM	61 nM	0.015 s⁻¹	H1041/L0442 (antibody, human IgG1, kappa, name in Kabat numbering, V domains shown, L442 = L395 + S31E) VH: QVQLVESGGGLVQPGGSLRLSCAASGFTFSEYYLSWVRQAPGKGLEWVGLIRNKDNGYHPEYSASVKGRFTISRDDSKNSLYLTMSDLKTEDTAVYYCARENHRYDVELAYWGQGTLVTVSS VL: DIQMTQSPSSLSASVGDRVTITCRASEIIYEYLAWYQQKPGKAPKLLIYKAKTHADGVPSRFSGSGSGTDFTFTISSLQPEDIATYYCKHHFGFPRTFGQGTKVEIKR
	0.053 nM	33 nM	0.0045 s⁻¹	H1049/L0442 (antibody, human IgG1, kappa, name in Kabat numbering, V domains shown, L442 = L395 + S31E) VH: QVQLVESGGGLVQPGGSLRLSCAASGFTFDKYYLSWVRQAPGKGLEWVGLIRNKDNYHTPEYSASVKGRFTISRDDSKNSLYLTMSDLKTEDTAVYYCARENHRYDVELAYWGQGTLVTVSS VL: DIQMTQSPSSLSASVGDRVTITCRASEIIYEYLAWYQQKPGKAPKLLIYKAKTHADGVPSRFSGSGSGTDFTFTISSLQPEDIATYYCKHHFGFPRTFGQGTKVEIKR
	0.066 nM	77 nM	0.005 s⁻¹	H1050/L0395 (antibody, human IgG1, kappa, name in Kabat numbering, V domains shown) VH: QVQLVESGGGLVQPGGSLRLSCAASGFTFSEYYLSWVRQAPGKGLEWVGLIRNKDNYHTPEYSASVKGRFTISRDDSKNSLYLTMSDLKTEDTAVYYCARENHRYDVELAYWGQGTLVTVSS VL: DIQMTQSPSSLSASVGDRVTITCRASEIIYSYLAWYQQKPGKAPKLLIYKAKTHADGVPSRFSGSGSGTDFTFTISSLQPEDIATYYCKHHFGFPRTFGQGTKVEIKR
